These results are taken from patent publication US9931415B2, “Pyrrolobenzodiazepine-antibody conjugates” (ADC THERAPEUTICS S.A., priority 2012, dated 2018).

In one assay the target is T1, CD25 on Karpas299 cells (Homo sapiens, UniProt P01589).
T1 construct: Surface CD25 expression on Karpas and SU-DHL-1 was determined by flow cytometry; endogenous in cells; host or cells: Karpas299 and SU-DHL-1 cell lines
T1 sequence (P01589 22-272): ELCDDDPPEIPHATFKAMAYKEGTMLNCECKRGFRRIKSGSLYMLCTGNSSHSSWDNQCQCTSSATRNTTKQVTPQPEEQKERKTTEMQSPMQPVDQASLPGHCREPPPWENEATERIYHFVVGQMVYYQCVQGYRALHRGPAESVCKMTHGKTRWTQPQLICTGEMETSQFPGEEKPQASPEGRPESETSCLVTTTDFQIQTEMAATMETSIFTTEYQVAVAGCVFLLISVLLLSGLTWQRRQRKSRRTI
Description: Binding of HuMax-TAC to CD25 +ve cell lines by flow cytometry (Karpas299). Here is the method:
(§1) Karpas299 and SU-DHL-1 anaplastic large cell lymphoma (ALCL)-derived cell lines have been previously reported to express CD25 (2,3). To confirm their expression profile, CD25 surface expression was analyzed by flow cytometry. HuMax-TAC was used as a CD25-specific antibody. B12 was used as a negative control antibody.
(§2) Surface CD25 expression on Karpas and SU-DHL-1 was determined by flow cytometry. Graphs represent the average of three (Karpas299) or four independent experiments (SU-DHL-1). EC50 values are reported in ng/ml.
In general terms: Flow cytometry measures light scatter and fluorescence of single cells or particles in a stream.

In another assay the target is T2, CD25 on SU-DHL-1 cells (Homo sapiens, UniProt P01589).
T2 construct: endogenous in cells; host or cells: Karpas299 and SU-DHL-1 cell lines
T2 sequence (P01589 22-272): T1 sequence (P01589 22-272)
Put plainly: Binding of HuMax-TAC to CD25 +ve cell lines by flow cytometry (SU-DHL-1). Here is the method: as §1, §2

A word on the EC50: it is the concentration that produces a half-maximal response. Low values mean a more potent agent, high ones a less potent agent. Consider “HuMax-TAC: anti-CD25 antibody comprising a VH domain of SEQ ID NO. 1 and a VL domain of SEQ ID NO. 2”, for which the “binding to cell surface CD25 (flow cytometry)” value with CD25 on Karpas299 cells and with CD25 on SU-DHL-1 cells was “specifically bound” throughout. Besides, the “EC50” value is 0.02021 µg/mL with CD25 on Karpas299 cells (flow cytometry, average of three experiments) and 0.03406 µg/mL in the assay with CD25 on SU-DHL-1 cells (flow cytometry, average of four experiments).
